Measured values from paper PMC8789855, “Ion currents through Kir potassium channels are gated by anionic lipids” (Nature Communications, 2022).

How the values were obtained:
KirBac3.1-SCS [1] = molecular target: T1, KirBac3.1-SCS (Paramagnetospirillum magnetotacticum, UniProt D9N164, C71S/C262S); test: ACMA liposome K+ flux assay; single-channel recording; PEGylation gel shift; assay type: biochemical; settings: covalent, at Cys119 near fenestration; activator; pH 8.5 (flux assay)
T1 construct: prokaryotic Kir channel, native Cys119 kept as only cysteine, expressed in E. coli C41(DE3), Co2+ IMAC, homotetramer, reconstituted in liposomes or bilayers; PDB 6O9U is the native parent, 7N9L/7N9K are SCS and SCS-L124M
T1 sequence (D9N164 1-295 C71S/C262S): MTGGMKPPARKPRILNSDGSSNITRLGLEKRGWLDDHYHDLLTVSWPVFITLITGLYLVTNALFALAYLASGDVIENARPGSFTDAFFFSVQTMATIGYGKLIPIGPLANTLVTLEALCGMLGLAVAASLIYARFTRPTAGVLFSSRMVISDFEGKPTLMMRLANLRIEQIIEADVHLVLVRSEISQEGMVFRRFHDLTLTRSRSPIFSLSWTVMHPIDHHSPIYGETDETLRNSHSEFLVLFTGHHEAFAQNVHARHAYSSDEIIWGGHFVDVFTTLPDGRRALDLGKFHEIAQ

KirBac3.1-SCS [2] = molecular target: T1, KirBac3.1-SCS; test: single-channel recording in planar lipid bilayer; assay type: biochemical; settings: covalent, at Cys119 near fenestration; pH 7.4, 23 C, -80 mV
[3] = molecular target: the molecule itself; test: native MS; 200 mM ammonium acetate pH 8.0, 0.5% C8E4 (2x CMC); modified Q-Exactive
[4] = molecular target: the molecule itself; test: crystal structure; sitting drops, vapour diffusion, 4 mg/ml protein; PEG 4,000, PEG 8000, PEG 400, 90 mM HEPES pH 7.5, 1 mM TCEP and 50 mM EDTA or 10 mM CaCl2
[5] = molecular target: the molecule itself; test: SEC; Superdex 200 10/30 in 20 mM TRIS pH 8.0, 150 mM KCl, 0.02% (w/v) DDM; fractions of the tetramer collected

CCCCCCCCCCSS(C)(=O)=O [decyl-MTS]
ACMA liposome K+ flux assay; single-channel recording; PEGylation gel shift (KirBac3.1-SCS [1]): bound decyl chains (C119-decyl) increased activity relative to wild type

CCCCCCCCSS(C)(=O)=O [octyl MTS-reagent (C119-octyl)]
single-channel recording in planar lipid bilayer (KirBac3.1-SCS [2]): channels derivatised with one of three MTS-reagents to titrate the effect of chain length

B1: KirBac3.1 (wild type prokaryotic Kir channel) (natural protein)
chain: MTGGMKPPARKPRILNSDGSSNITRLGLEKRGWLDDHYHDLLTVSWPVFITLITGLYLVTNALFALAYLACGDVIENARPGSFTDAFFFSVQTMATIGYGKLIPIGPLANTLVTLEALCGMLGLAVAASLIYARFTRPTAGVLFSSRMVISDFEGKPTLMMRLANLRIEQIIEADVHLVLVRSEISQEGMVFRRFHDLTLTRSRSPIFSLSWTVMHPIDHHSPIYGETDETLRNSHSEFLVLFTGHHEAFAQNVHARHAYSCDEIIWGGHFVDVFTTLPDGRRALDLGKFHEIAQ
notes: KirBac3.1, prokaryotic inward rectifier K+ channel; Co-purifies with phospholipids (PG, PE); also called native KirBac3.1; wild type KirBac3.1; source: E. coli C41(DE3), purified (Co2+ IMAC, Superdex 200 SEC, in DDM)
stoichiometry N [3]: 4

B2: KirBac3.1-SCS (C71S-C262S background) (natural protein)
chain: MTGGMKPPARKPRILNSDGSSNITRLGLEKRGWLDDHYHDLLTVSWPVFITLITGLYLVTNALFALAYLASGDVIENARPGSFTDAFFFSVQTMATIGYGKLIPIGPLANTLVTLEALCGMLGLAVAASLIYARFTRPTAGVLFSSRMVISDFEGKPTLMMRLANLRIEQIIEADVHLVLVRSEISQEGMVFRRFHDLTLTRSRSPIFSLSWTVMHPIDHHSPIYGETDETLRNSHSEFLVLFTGHHEAFAQNVHARHAYSSDEIIWGGHFVDVFTTLPDGRRALDLGKFHEIAQ
notes: KirBac3.1 with two native cysteines mutated to serine; Mutant cDNA bought from Genscript; source: E. coli C41(DE3), purified (Co2+ IMAC, Superdex 200 SEC, in DDM)
binding result [4]: binds

B3: KirBac3.1 L124M (on the C71S-C262S background) (natural protein)
chain: MTGGMKPPARKPRILNSDGSSNITRLGLEKRGWLDDHYHDLLTVSWPVFITLITGLYLVTNALFALAYLASGDVIENARPGSFTDAFFFSVQTMATIGYGKLIPIGPLANTLVTLEALCGMLGMAVAASLIYARFTRPTAGVLFSSRMVISDFEGKPTLMMRLANLRIEQIIEADVHLVLVRSEISQEGMVFRRFHDLTLTRSRSPIFSLSWTVMHPIDHHSPIYGETDETLRNSHSEFLVLFTGHHEAFAQNVHARHAYSSDEIIWGGHFVDVFTTLPDGRRALDLGKFHEIAQ
notes: KirBac3.1 with L124M on the SCS (C71S-C262S) background; Mutant cDNA bought from Genscript; also called Leu124M; source: E. coli C41(DE3), purified (Co2+ IMAC, Superdex 200 SEC, in DDM)
binding result [4]: binds

B4: KirBac3.1-SCS derivatised with decyl-MTS at Cys119 (natural protein)
chain: MTGGMKPPARKPRILNSDGSSNITRLGLEKRGWLDDHYHDLLTVSWPVFITLITGLYLVTNALFALAYLASGDVIENARPGSFTDAFFFSVQTMATIGYGKLIPIGPLANTLVTLEALCGMLGLAVAASLIYARFTRPTAGVLFSSRMVISDFEGKPTLMMRLANLRIEQIIEADVHLVLVRSEISQEGMVFRRFHDLTLTRSRSPIFSLSWTVMHPIDHHSPIYGETDETLRNSHSEFLVLFTGHHEAFAQNVHARHAYSSDEIIWGGHFVDVFTTLPDGRRALDLGKFHEIAQ
modifications: decyl chain from decyl-methylthiosulfonate on Cys119
notes: KirBac3.1 on the otherwise cysteine-less SCS background (C71S-C262S), native Cys119 kept and derivatised; also called C119-decyl; source: E. coli C41(DE3), purified, reacted with decyl-MTS, re-purified by SEC
binding result [5]: binds

B5: KirBac3.1-SCS derivatised with hexyl-MTS at Cys119 (natural protein)
chain: MTGGMKPPARKPRILNSDGSSNITRLGLEKRGWLDDHYHDLLTVSWPVFITLITGLYLVTNALFALAYLASGDVIENARPGSFTDAFFFSVQTMATIGYGKLIPIGPLANTLVTLEALCGMLGLAVAASLIYARFTRPTAGVLFSSRMVISDFEGKPTLMMRLANLRIEQIIEADVHLVLVRSEISQEGMVFRRFHDLTLTRSRSPIFSLSWTVMHPIDHHSPIYGETDETLRNSHSEFLVLFTGHHEAFAQNVHARHAYSSDEIIWGGHFVDVFTTLPDGRRALDLGKFHEIAQ
modifications: hexyl chain from hexyl-methylthiosulfonate on Cys119
notes: KirBac3.1 on the otherwise cysteine-less SCS background (C71S-C262S), native Cys119 kept and derivatised; also called C119-hexyl; source: E. coli C41(DE3), purified, reacted with hexyl-MTS, re-purified by SEC
binding result [5]: binds
